This is an account of results in patent US20140088174A1.

Assay [1] concerns the target TGFBR1 (transforming growth factor, beta receptor I), endogenous in mouse cells (mouse) (UniProt Q64729). Kind of assay: cell-based or functional assay.
Assay [2] concerns the target ACVR1B (activin receptor type-1B), endogenous in mouse cells (mouse) (UniProt Q61271). Kind of assay: cell-based or functional assay.
Chain of UniProt Q61271 (Q61271 24-505): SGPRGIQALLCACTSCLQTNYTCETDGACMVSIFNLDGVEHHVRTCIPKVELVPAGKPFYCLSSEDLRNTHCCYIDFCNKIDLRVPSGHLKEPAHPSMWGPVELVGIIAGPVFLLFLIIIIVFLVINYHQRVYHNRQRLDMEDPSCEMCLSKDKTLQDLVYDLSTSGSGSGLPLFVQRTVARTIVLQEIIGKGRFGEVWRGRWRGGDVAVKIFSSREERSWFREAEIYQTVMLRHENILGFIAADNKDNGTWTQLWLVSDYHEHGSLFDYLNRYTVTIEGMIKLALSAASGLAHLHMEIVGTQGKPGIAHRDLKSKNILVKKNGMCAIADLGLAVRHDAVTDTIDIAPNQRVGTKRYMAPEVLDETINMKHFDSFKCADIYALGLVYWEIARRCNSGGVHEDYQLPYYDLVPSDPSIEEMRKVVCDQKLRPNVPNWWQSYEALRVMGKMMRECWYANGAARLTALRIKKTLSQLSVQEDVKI

Chain of UniProt Q64729 (Q64729 30-503): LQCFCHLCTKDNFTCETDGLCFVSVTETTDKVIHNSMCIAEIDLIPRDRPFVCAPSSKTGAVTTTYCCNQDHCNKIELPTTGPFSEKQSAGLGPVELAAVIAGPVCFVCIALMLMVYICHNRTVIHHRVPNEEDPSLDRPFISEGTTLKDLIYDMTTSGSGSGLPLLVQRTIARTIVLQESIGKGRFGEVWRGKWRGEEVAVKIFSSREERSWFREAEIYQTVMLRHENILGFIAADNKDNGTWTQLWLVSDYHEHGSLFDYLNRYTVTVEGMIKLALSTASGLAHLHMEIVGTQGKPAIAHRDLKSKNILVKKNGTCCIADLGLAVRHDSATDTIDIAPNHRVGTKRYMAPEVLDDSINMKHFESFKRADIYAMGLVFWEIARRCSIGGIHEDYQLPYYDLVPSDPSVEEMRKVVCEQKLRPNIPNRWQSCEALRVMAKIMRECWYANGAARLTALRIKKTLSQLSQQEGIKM

Regarding TGF-beta (ligand), the TGF-beta-mediated CAGA luciferase activity in C2C12 and C3H10 T1/2 cells upon siRNA knockdown of TGFBR1 in assay [1] was 3 folds.
In assay [1], “myostatin (from UniProt O14793 267-375) (ligand)” returned a myostatin-induced CAGA luciferase in C3H10 T1/2 cells upon siRNA knockdown of TGFBR1 of 2.5 folds and a myostatin-induced luciferase in C3H10 T1/2 cells upon TGFBR1 knockdown with A5E2 or A5E6 AON of 50%. In addition, in assay [2], the myostatin-induced CAGA luciferase in C2C12 cells upon siRNA knockdown of ACVR1B worked out at 5 folds and the myostatin-induced luciferase in C2C12 upon A4E6 AON transfection (fold decrease) amounted to 3.
